Target: T1, Human CD73 ECD (human, UniProt P21589 27-549)
T1 construct: Biotinylated in some assays; also called human CD73 extracellular domain; huCD73
T1 sequence: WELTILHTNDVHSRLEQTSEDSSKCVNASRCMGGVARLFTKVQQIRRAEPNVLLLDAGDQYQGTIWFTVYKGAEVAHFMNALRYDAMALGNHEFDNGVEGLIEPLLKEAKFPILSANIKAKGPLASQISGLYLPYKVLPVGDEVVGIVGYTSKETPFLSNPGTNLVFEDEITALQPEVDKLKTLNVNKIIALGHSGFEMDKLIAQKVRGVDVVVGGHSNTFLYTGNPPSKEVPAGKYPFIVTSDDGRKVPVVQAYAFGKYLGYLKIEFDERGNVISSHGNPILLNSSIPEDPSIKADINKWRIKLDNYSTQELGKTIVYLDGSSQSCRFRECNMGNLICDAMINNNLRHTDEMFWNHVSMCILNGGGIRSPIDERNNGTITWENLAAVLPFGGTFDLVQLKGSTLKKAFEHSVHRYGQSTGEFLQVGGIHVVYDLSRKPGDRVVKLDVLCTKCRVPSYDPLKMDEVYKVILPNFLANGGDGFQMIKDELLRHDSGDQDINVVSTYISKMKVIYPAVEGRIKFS
Assay: SPR (ProteOn), antibody captured by anti-human Fc, CD73 ECD in mobile phase
Source text: A ProteOn XPR36 instrument was used to characterize binding of MEDI9447 to human, murine, and cynomolgus CD73 ECD. MEDI9447 was affinity-captured using an anti-human Fc antibody. CD73 ECD was in the mobile phase. The association and dissociation of CD73 to MEDI9447 could be accurately described with the Langmuir 1: 1 model.

B1: MEDI9447 (antibody, human IgG1, lambda, V domains shown)
VH: EVQLLESGGGLVQPGGSLRLSCAASGFTFSSYAYSWVRQAPGKGLEWVSAISGSGGRTYYADSVKGRFTISRDNSKNTLYLQMNSLRAEDTAVYYCARLGYGRVDEWGRGTLVTVSS
VL: QSVLTQPPSASGTPGQRVTISCSGSLSNIGRNPVNWYQQLPGTAPKLLIYLDNLRLSGVPDRFSGSKSGTSASLAISGLQSEDEADYYCATWDDSHPGWTFGGGTKLTVLG
notes: Human IgG1-TM (L234F, L235E, P331S), lambda light chain; also called clone 10.3 antibody; 73combo3
For B1, which koff is on record?
Its koff is 1.06e-05 s⁻¹.

What about the kon of the same binder?
Its kon is 2.57e+06 M⁻¹ s⁻¹.
